# Biological target: hGIPR (human) (UniProt P48546)
# Assay: cell-based or functional assay
# hGIPR (human), sequence (P48546 22-466): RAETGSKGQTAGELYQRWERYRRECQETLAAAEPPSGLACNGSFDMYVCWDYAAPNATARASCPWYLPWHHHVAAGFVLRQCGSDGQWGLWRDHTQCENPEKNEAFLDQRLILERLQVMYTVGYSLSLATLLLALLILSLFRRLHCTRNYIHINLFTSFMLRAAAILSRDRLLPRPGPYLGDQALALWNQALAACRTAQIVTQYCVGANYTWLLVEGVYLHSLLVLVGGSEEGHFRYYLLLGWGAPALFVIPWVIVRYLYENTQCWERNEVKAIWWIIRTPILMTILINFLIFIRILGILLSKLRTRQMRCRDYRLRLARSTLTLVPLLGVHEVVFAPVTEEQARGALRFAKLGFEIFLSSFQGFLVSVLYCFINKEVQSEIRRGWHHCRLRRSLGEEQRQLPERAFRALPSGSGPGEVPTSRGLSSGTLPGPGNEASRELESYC
substance,measurement,value
hGIP (from UniProt P09681 52-93) (peptide),"pEC50, cAMP accumulation (pEC50 (-log M))",11.8

# Reference: patent publication US20240228572A1, “LONG ACTING GLUCAGON RECEPTOR SELECTIVE PEPTIDES AND METHODS OF USE” (i2o Therapeutics, Inc., priority 2020, published 2024)
